Measured values taken from patent US20230416364A1.
Each block holds one binder with its values, some of them ahead of it.

Molecular target: human IL-2 (Miltenyi) (human) (UniProt P60568)
Experiment: SPR

Chain of human IL-2 (Miltenyi) (human) (P60568 21-153 limits assumed): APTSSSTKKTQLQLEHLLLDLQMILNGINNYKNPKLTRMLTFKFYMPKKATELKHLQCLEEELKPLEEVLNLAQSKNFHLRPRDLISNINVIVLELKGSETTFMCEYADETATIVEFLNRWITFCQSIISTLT

Kd: 12 nM
koff: 0.063 s⁻¹
kon: 5.4e+06 M⁻¹ s⁻¹
B1: GS_hCD25.d (protein, part only; not given: Fusion partner and linker, part only)
chain, part: ELCDDDPPEIPHATFKAMAYKEGTMLNCECKRGFRRIKSGSLYMLCTGNSSHSSWDNQCQCTSSATRNTTKQVTPQPEEQKERKTTEMQSPMQPVDQASLPGHCREPPPWENEATERIYHFVVGQMVYYQCVQGYRALHRGPAESVCKMTHGKTRWTQPQLICTG

Kd: 12 nM
kon: 1.1e+07 M⁻¹ s⁻¹
B2: GS_hCD25.b (protein, part only; not given: Fusion partner and linker, part only)
chain, part: ELCDDDPPEIPHATFKAMAYKEGTMLNCECKRGFRRIKSGSLYMLCTGNSSHSSWDNQCQCTSSATRNTTKQVTPQPEEQKERKTTEMQSPMQPVDQASLPGHCREPPPWENEATERIYHFVVGQMVYYQCVQGYRALHRGPAESVCKMTHGKTRWTQPQLICTGEMETSQFPGEEKPQASPEGRPESETSCLVTTTDFQIQ
